Experimental data as given in IntAct's records for PubMed 15563508.

B1: Carbonic anhydrase 4 (Homo sapiens), P22748 (parent)
chain: MRMLLALLALSAARPSASAESHWCYEVQAESSNYPCLVPVKWGGNCQKDRQSPINIVTTKAKVDKKLGRFFFSGYDKKQTWTVQNNGHSVMMLLENKASISGGGLPAPYQAKQLHLHWSDLPYKGSEHSLDGEHFAMEMHIVHEKEKGTSRNVKEAQDPEDEIAVLAFLVEAGTQVNEGFQPLVEALSNIPKPEMSTTMAESSLLDLLPKEEKLRHYFRYLGSLTTPTCDEKVVWTVFREPIQLHREQILAFSQKLYYDKEQTVSMKDNVRPLQQLGQRTVIKSGAPGRPLPWALPALLGPMLACLLAGFLR
partner: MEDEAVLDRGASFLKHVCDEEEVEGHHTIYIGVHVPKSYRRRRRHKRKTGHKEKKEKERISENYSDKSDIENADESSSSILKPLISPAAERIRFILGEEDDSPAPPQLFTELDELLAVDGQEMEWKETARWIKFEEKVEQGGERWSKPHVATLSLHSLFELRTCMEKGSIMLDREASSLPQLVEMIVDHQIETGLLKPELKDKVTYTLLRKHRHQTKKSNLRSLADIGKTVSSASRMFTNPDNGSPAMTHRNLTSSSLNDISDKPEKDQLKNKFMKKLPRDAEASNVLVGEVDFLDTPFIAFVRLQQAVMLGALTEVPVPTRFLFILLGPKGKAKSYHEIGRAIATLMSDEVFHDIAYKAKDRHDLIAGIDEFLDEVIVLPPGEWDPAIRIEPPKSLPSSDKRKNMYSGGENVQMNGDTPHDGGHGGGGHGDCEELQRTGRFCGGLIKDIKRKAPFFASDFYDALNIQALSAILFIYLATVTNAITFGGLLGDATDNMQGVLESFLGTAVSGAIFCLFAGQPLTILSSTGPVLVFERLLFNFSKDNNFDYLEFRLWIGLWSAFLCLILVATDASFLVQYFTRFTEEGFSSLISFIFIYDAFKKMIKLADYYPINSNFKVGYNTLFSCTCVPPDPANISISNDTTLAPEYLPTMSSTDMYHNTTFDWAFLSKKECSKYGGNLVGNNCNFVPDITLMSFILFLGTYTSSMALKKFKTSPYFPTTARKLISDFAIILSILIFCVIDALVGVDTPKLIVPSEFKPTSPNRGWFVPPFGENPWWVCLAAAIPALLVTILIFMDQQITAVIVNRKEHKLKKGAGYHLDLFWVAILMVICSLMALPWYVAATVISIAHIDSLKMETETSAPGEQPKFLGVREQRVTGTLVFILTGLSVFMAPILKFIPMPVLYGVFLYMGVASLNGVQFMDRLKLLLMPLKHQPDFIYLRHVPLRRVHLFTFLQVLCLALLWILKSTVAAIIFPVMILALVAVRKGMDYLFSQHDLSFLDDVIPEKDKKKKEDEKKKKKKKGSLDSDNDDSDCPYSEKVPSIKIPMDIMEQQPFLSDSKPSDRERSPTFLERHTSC

Variants of: B1
Settings: with s4a4_human SLC4A4, Q9Y6R1

| effect of a mutation on the interaction | Variant |
| --- | --- |
| decreasing interaction | R14W |
